Positions count from the first letter of the chain named.

Data set [1] has as its target N4 mini-vRNAP K670A K670A (mini-vRNAP numbering) (Bacteriophage N4) (UniProt Q859P9). Kind of data set: filter. The settings on record: wild-type affinity; method inferred.
Data set [2] deals with T1, N4 mini-vRNAP (His-tagged) (Bacteriophage N4, UniProt Q859P9 SEQ:34-1143).
T1 chain: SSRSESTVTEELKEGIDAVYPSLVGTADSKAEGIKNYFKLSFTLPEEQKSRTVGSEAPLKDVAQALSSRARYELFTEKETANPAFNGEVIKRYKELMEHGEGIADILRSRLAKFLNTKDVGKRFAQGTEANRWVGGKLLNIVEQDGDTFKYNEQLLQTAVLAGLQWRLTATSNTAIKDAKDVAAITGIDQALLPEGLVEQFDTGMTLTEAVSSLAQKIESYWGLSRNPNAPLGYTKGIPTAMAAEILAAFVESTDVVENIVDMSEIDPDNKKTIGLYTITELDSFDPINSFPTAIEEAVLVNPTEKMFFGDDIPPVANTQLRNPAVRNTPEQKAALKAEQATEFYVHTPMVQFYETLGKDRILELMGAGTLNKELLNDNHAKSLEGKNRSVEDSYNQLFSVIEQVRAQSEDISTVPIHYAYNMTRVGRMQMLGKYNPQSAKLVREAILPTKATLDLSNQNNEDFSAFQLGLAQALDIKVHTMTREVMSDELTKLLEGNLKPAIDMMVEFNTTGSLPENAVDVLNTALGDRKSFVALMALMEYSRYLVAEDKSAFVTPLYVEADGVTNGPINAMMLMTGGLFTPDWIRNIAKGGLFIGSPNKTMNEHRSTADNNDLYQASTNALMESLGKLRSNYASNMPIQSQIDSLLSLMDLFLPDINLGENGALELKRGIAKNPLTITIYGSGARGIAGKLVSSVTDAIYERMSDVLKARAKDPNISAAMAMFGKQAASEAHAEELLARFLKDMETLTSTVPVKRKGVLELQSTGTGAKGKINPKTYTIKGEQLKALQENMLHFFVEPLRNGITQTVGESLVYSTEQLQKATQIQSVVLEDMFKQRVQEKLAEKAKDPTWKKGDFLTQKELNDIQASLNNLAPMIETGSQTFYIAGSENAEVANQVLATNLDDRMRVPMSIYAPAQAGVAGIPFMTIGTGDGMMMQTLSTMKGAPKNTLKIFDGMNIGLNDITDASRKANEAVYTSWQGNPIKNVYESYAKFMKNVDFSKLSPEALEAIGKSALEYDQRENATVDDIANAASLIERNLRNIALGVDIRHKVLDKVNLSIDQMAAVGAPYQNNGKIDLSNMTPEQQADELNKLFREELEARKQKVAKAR
Kind of data set: filter; wild-type affinity; UV crosslinks. The settings on record: tags: N-terminal hexahistidine (pBAD); label: 32P end-label; hairpin. The source says: To study the sequence determinants of promoter binding, 20 base-long promoter oligonucleotides, containing the wild-type vRNAP promoter P2 sequence and substituted at every position with a single 5-Iodo-dU, were used. Whenever substitutions were made in the stem, the corresponding pairing base was changed to A. These oligonucleotides were ³²P end-labeled and used to determine the enzyme's affinity for promoter DNAs by a filter binding assay and the ability to crosslink to mini-vRNAP upon UV irradiation at 320 nm.

The target of data set [3] is T2, N4 mini-vRNAP Y678F (Bacteriophage N4, UniProt Q859P9 SEQ:34-1143).
T2 chain: T1 chain with Y682F
Kind of data set: UV crosslinking as well as wild type. The settings on record: tags: N-terminal hexahistidine (pBAD); label: 32P end-label; hairpin.

In data set [1], “TCCAAAAGAAGCGGAGCTTC [P2 wild-type 20-mer promoter oligo]” gave a binding signal (fold of wild type) of 1.

B1: P2 5-IdU at +3 (ssDNA)
DNA: TCCAAAAGAAGCGGAGCTTC
modifications: 5-iodo-dU at +3 [1 (5-iodo-dU, promoter position +3)]
For B1, the binding result in data set [2] and in data set [3] was “binds” in each case.

B2: P2 5-IdU at +2 (ssDNA)
DNA: TTCAAAAGAAGCGGAGCTTC
modifications: 5-iodo-dU at +2 [2 (5-iodo-dU, promoter position +2)]
With B2, the binding result in data set [2] was “binds”.

B3: P2 5-IdU at -11 (ssDNA)
DNA: TCCAAAAGAAGCGTAGCTTC
modifications: 5-iodo-dU at -11 [14 (5-iodo-dU, promoter position -11)]
For the molecule B3, the binding result in data set [3] is “binds”.

B4: P2 5-IdU at +1 (ssDNA)
DNA: TCTAAAAGAAGCGGAGCTTC
modifications: 5-iodo-dU at +1 [3 (5-iodo-dU, promoter position +1)]
On to B4, for which the binding result in data set [2] is recorded as “binds”.

The record behind these values is patent publication US20040191812, “Target-dependent transcription using deletion mutants of N4 RNA polymerase” (published 2004).
